Test results published in article PMC8641930, “PLK1 regulates the PrimPol damage tolerance pathway during the cell cycle” (Science Advances, 2021).
Substitutions are numbered along the chain they refer to. Names and notes keep the numbering of the source. Values belong to the binder of their own block, whether it stands above or below them.

Target: T1, RPA70N (RPA70 1-120) (UniProt P27694 1-120)
T1 construct: Replication Protein A 70 kDa subunit (RPA70), N-terminal domain, residues 1-120; source: E. coli BL21, purified (Ni-NTA, thrombin cleavage of the tag, Superdex 75 SEC)
Experiment: SEC; analytical size exclusion chromatography, Superdex 75 10/300 GL; 50 mM tris-HCl, 100 mM NaCl, 2 mM TCEP; CTD variants mixed with RPA70N at 35 uM; interaction read as a shift of the peaks relative to the single proteins
Conditions: both partners purified

T1 sequence (P27694 1-120): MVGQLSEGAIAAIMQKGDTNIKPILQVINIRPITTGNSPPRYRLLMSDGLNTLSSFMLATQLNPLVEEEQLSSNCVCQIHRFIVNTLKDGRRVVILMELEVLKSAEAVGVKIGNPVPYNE

binding result: binds
B1: PrimPol CTD (PrimPol 480-560) (domain or fragment, human, UniProt Q96LW4 480-560, looked up)
chain: TTDEADETRSNETQNPHKPSPSRLSTGASADAVWDNGIDDAYFLEATEDAELAEAAENSLLSYNSEVDEIPDELIIEVLQE
notes: also called C-terminal region of WT PrimPol; PrimPol C-terminal domain; source: E. coli BL21, purified (Ni-NTA, Q-Sepharose, Superdex 75 SEC)

binding result: binds
B2: PrimPol CTD (PrimPol 480-560) S538A (domain or fragment, human, UniProt Q96LW4 480-560, looked up)
chain: B1 chain with S59A
notes: Primase-Polymerase (PrimPol), human, C-terminal domain, residues 480-560, phospho-null mutant S538A; also called C-terminal region of mutant PrimPol; CTD S538A; source: E. coli BL21, purified (Ni-NTA, Q-Sepharose, Superdex 75 SEC)

binding result: binds
B3: PrimPol CTD (PrimPol 480-560) S538E (domain or fragment, human, UniProt Q96LW4 480-560, looked up)
chain: B1 chain with S59E
notes: Primase-Polymerase (PrimPol), human, C-terminal domain, residues 480-560, phosphomimetic mutant S538E; also called C-terminal region of mutant PrimPol; CTD S538E; source: E. coli BL21, purified (Ni-NTA, Q-Sepharose, Superdex 75 SEC)
